According to publication PMC10784468 (Nature Communications, 2024):
Where two headings read alike, the source gives them in different places. Positions of bridges follow the written chain, without caps; N, C: chain ends. Residues, ends and D or L forms follow the SMILES beside them. *: point of attachment. X1 = O=C(O)c1ccc(-c2c3nc(c(-c4ccc(C(=O)O)cc4)c4ccc([nH]4)c(-c4ccc(C(=O)*)cc4)c4nc(c(-c5ccc(C(=O)O)cc5)c5ccc2[nH]5)C=C4)C=C3)cc1; X2 = O=C(O)C/C(=C/C(=O)*)C(=O)O

Columns and labels:
[1] = Cy-labeled
Description: Firstly, A density of 5 × 10^6 EJ cell resuspended in Matrigel were subcutaneously injected into the right hind of mice to construct EJ xenograft model. When the tumor volume reached about 200–400 mm^3, the mice were administrated with Cy labeled Gi-F ([…]), Cy labeled Gi-F-SA ([…]) and Cy labeled Gi-F-CAA ([…]) by intravenous injection for in vivo fluorescence imaging at different timepoints (10 min, 20 min, 40 min, 1 h, 2 h, 4 h, 8 h, 12 h and 24 h) with in vivo imaging system (IVIS). Meanwhile, the EJ xenograft mice were sacrificed for collecting major organs and tumors to evaluate the biodistribution of Gi-F-CAA.

[2] = Morphology and size by TEM; type: physicochemical; settings: PBS 0.01 M, pH 6.5, 1 h, 40 μM
Description: Nano-ZS 3600 (Malvern Instruments, UK) was used to measure the size distribution of the peptide-porphyrin conjugate solutions. The conjugate solutions (40 μM) were incubated at pH 7.4 or pH 6.5 before measurements. An average value was determined by three repeated measurements at 25 °C for each sample. Besides, transmission electron microscopy (TEM, Tecnai G2 20 S-TWIN) was conducted to observe the morphology and diameters of conjugates in aqueous solution, The conjugates (50 μL, 40 μM) were kept in PB solution at pH 7.4 or pH 6.5, which were dropped on copper meshes. After 5 min, unnecessary liquid was removed and the uranyl acetate solution (10 μL) was dropped on this copper mesh to stain the samples for 10 min. Finally, the copper meshes were washed with deionized water, and dried at room temperature for observation.

[3] = test system: MCF-7/MDR xenograft tumors; assay: In vivo antitumor evaluation in MCF-7/MDR xenografted model
Description: Female BALB/c nude mice (~8 weeks, 18 g) were subcutaneously inoculated with 5 × 10^6 MCF-7/MDR cells resuspended in Matrigel. […] Individual tumor volume and bodyweight of mouse after different treatment was collected at 2-days intervals for analysis. Mice were killed at 20 days post treatment unless endpoints were exceeded. Moreover, tumors from all groups were harvested under euthanasia and weighed for analysis at the end of treatment.

EJ cells = assay: Cellular imaging (uptake) by CLSM; type: cell-based; settings: Cy7-labeled, 40 μM, 2 h
Description: Initially, EJ cells (5 × 10^5) were cultured in confocal dish with a CO2 incubator overnight at 37 °C. Subsequently, the EJ cells were incubated with Cy labeled Gi-F-CAA (40 μM, pH = 7.4) and Cy labeled Gi-F-CAA (40 μM, pH = 6.5) for 2 h followed by washing with PBS for three times.

[4] = ex vivo, i.v., EJ xenograft mice
[5] = ex vivo, EJ xenograft mice, i.v. 0.5 mg/kg, mice 1
[6] = ex vivo, EJ xenograft mice, i.v. 0.5 mg/kg, mice 2
[7] = ex vivo, EJ xenograft mice, i.v. 0.5 mg/kg, mice 3
[8] = ex vivo, EJ xenograft mice, i.v. 1 mg/kg, mice 1
[9] = ex vivo, EJ xenograft mice, i.v. 1 mg/kg, mice 2
[10] = ex vivo, EJ xenograft mice, i.v. 1 mg/kg, mice 3
[11] = ex vivo, EJ xenograft mice, i.v. 2 mg/kg, mice 1
[12] = ex vivo, EJ xenograft mice, i.v. 2 mg/kg, mice 2
[13] = ex vivo, EJ xenograft mice, i.v. 2 mg/kg, mice 3
[14] = ex vivo, EJ xenograft mice, i.v. 4 mg/kg, mice 1
[15] = ex vivo, EJ xenograft mice, i.v. 4 mg/kg, mice 2
[16] = ex vivo, EJ xenograft mice, i.v. 4 mg/kg, mice 3
[17] = ex vivo, EJ xenograft mice, i.v. 8 mg/kg, mice 1
[18] = ex vivo, EJ xenograft mice, i.v. 8 mg/kg, mice 2
[19] = ex vivo, EJ xenograft mice, i.v. 8 mg/kg, mice 3

CC(C)C[C@H](NC(=O)c1ccc(-c2c3nc(c(-c4ccc(C(=O)O)cc4)c4ccc([nH]4)c(-c4ccc(C(=O)O)cc4)c4nc(c(-c5ccc(C(=O)O)cc5)c5ccc2[nH]5)C=C4)C=C3)cc1)C(=O)N[C@@H](CCCCNC(=O)/C=C(/CC(=O)O)C(=O)O)C(=O)N[C@@H](CC(C)C)C(=O)N[C@@H](CCCCN)C(=O)N[C@@H](CC(C)C)C(=O)N[C@@H](CCCCNC(=O)/C=C(/CC(=O)O)C(=O)O)C(=O)NCC(=O)N[C@@H](C)C(=O)N[C@H]1CSSC[C@@H](C(=O)N2CCC[C@H]2C(=O)N[C@H](C(=O)O)C(C)C)NC(=O)[C@@H]2CCCN2C(=O)[C@H](Cc2ccc(O)cc2)NC(=O)[C@H](CC(C)C)NC(=O)[C@@H]2CCCN2C(=O)[C@H](CC(C)C)NC(=O)[C@H](Cc2c[nH]c3ccccc23)NC(=O)[C@H](CC(N)=O)NC1=O [Gi-F-CAA] (X1-LK(X2)LKLK(X2)GACNWLPLYPCPV-OH; disulfide 9-17; C-terminus assumed)
ex vivo fluorescence signal at the tumor ([1]; 8 mg/kg i.v., versus Gi-F and Gi-F-SA groups): strong fluorescence signal | fluorescence intensity at tumor relative to kidney [1, 4]: ~ 2.4 fold | fluorescence intensity at tumor relative to liver [1, 4]: ~ 1.9 fold | kidney Average FI [1, 5]: 1.89E+07 x10^8 p/cm2/s | liver Average FI [1, 5]: 2.16E+07 x10^8 p/cm2/s | tumor Average FI [1, 5]: 1.51E+07 x10^8 p/cm2/s | kidney Average FI [1, 6]: 1.50E+07 x10^8 p/cm2/s | liver Average FI [1, 6]: 1.85E+07 x10^8 p/cm2/s | tumor Average FI [1, 6]: 1.10E+07 x10^8 p/cm2/s | kidney Average FI [1, 7]: 1.59E+07 x10^8 p/cm2/s | liver Average FI [1, 7]: 1.52E+07 x10^8 p/cm2/s | tumor Average FI [1, 7]: 1.37E+07 x10^8 p/cm2/s | kidney Average FI [1, 8]: 3.76E+07 x10^8 p/cm2/s | liver Average FI [1, 8]: 4.34E+07 x10^8 p/cm2/s | tumor Average FI [1, 8]: 2.76E+07 x10^8 p/cm2/s | kidney Average FI [1, 9]: 3.14E+07 x10^8 p/cm2/s | liver Average FI [1, 9]: 3.92E+07 x10^8 p/cm2/s | tumor Average FI [1, 9]: 2.99E+07 x10^8 p/cm2/s | kidney Average FI [1, 10]: 3.06E+07 x10^8 p/cm2/s | liver Average FI [1, 10]: 3.19E+07 x10^8 p/cm2/s | tumor Average FI [1, 10]: 3.48E+07 x10^8 p/cm2/s | kidney Average FI [1, 11]: 5.61E+07 x10^8 p/cm2/s | liver Average FI [1, 11]: 6.33E+07 x10^8 p/cm2/s | tumor Average FI [1, 11]: 4.80E+07 x10^8 p/cm2/s | kidney Average FI [1, 12]: 4.60E+07 x10^8 p/cm2/s | liver Average FI [1, 12]: 5.75E+07 x10^8 p/cm2/s | tumor Average FI [1, 12]: 3.97E+07 x10^8 p/cm2/s | kidney Average FI [1, 13]: 4.92E+07 x10^8 p/cm2/s | liver Average FI [1, 13]: 4.67E+07 x10^8 p/cm2/s | tumor Average FI [1, 13]: 3.88E+07 x10^8 p/cm2/s | kidney Average FI [1, 14]: 7.41E+07 x10^8 p/cm2/s | liver Average FI [1, 14]: 9.04E+07 x10^8 p/cm2/s | tumor Average FI [1, 14]: 9.54E+07 x10^8 p/cm2/s | kidney Average FI [1, 15]: 6.02E+07 x10^8 p/cm2/s | liver Average FI [1, 15]: 7.81E+07 x10^8 p/cm2/s | tumor Average FI [1, 15]: 8.23E+07 x10^8 p/cm2/s | kidney Average FI [1, 16]: 6.88E+07 x10^8 p/cm2/s | liver Average FI [1, 16]: 6.42E+07 x10^8 p/cm2/s | tumor Average FI [1, 16]: 9.16E+07 x10^8 p/cm2/s | kidney Average FI [1, 17]: 8.52E+07 x10^8 p/cm2/s | liver Average FI [1, 17]: 1.07E+08 x10^8 p/cm2/s | tumor Average FI [1, 17]: 2.09E+08 x10^8 p/cm2/s | kidney Average FI [1, 18]: 6.80E+07 x10^8 p/cm2/s | liver Average FI [1, 18]: 9.09E+07 x10^8 p/cm2/s | tumor Average FI [1, 18]: 1.62E+08 x10^8 p/cm2/s | kidney Average FI [1, 19]: 7.55E+07 x10^8 p/cm2/s | liver Average FI [1, 19]: 8.19E+07 x10^8 p/cm2/s | tumor Average FI [1, 19]: 1.71E+08 x10^8 p/cm2/s | particle size (TEM) [2]: 57 ± 9 nm | mean tumor volume at 20 days post injection ([3]; MCF-7/MDR xenograft, six i.v. injections every 2 days, Gi-F-CAA 8 mg/kg, DOX and CPT 3 mg/kg, n = 6): 623 mm^3 | TGI rate ([3]; MCF-7/MDR xenograft, six i.v. injections, Gi-F-CAA 8 mg/kg, DOX and CPT 3 mg/kg, 20 days): 66% | Tumor weight ([3]; mice 1): 0.59 g | Tumor weight ([3]; mice 2): 0.52 g | Tumor weight ([3]; mice 3): 0.51 g | Tumor weight ([3]; mice 4): 0.35 g | Tumor weight ([3]; mice 5): 0.37 g | Tumor weight ([3]; mice 6): 0.54 g | cellular uptake (CLSM) at pH 6.5 (EJ cells; pH 6.5): obvious fluorescence signal was observed in the cytoplasm | cellular uptake (CLSM) at pH 7.4 (EJ cells; pH 7.4): barely detected
